In assay [1] the target is T1, MERS RBD-hFc (MERS-CoV (isolate EMC/2012)). In words: SPR (Biacore), hybridoma supernatant antibody captured, MERS RBD-hFc as analyte. (In general: SPR reads the build-up and loss of mass on a sensor chip optically.)
The target in assay [2] is T1, MERS RBD-hFc. In words: SPR Biacore, captured mAb, 25 C.
Assay [3] concerns the target T1, MERS RBD-hFc. In words: SPR Biacore, captured mAb, 37 C.
Assay [4] addresses T1, MERS RBD-hFc. In words: ELISA on coated MERS RBD-hFc, hybridoma supernatant 1:50, absorbance at 450 nm. For orientation: ELISA stands for enzyme-linked immunosorbent assay.

B1: H1M15277N (antibody, V domains shown)
V domain 1: EVQLLESGGGLVQPGGSLRLSCAASGFTFSSYAMSWVRQAPGKGLEWVSAISGRGGNTYYADSVKGRFTISRDNSKNTLFLQMNTLRAEDTAVYYCAKDRGFGFFDIWGRGTLATVSS
V domain 2: not shown
For B1, in the assay with MERS RBD-hFc [1], binding was put at a Kd of 1.72 nM and the t½ (as a rule, how long it takes for the measured level to halve) worked out at 11.1 min. In the assay with MERS RBD-hFc [2], the dissociation constant Kd (usually the free concentration of one partner at which half of the binding sites on the other are occupied at equilibrium, for simple one-to-one binding) is 0.346 nM; the koff (as a rule, a measure of how fast the partners let go of each other) came out at 0.00091 s⁻¹; the kon – broadly, the second-order rate constant of association – came out at 2.63e+06 M⁻¹ s⁻¹; the t1/2 was 13 min. In the assay with MERS RBD-hFc [3], this molecule returned a Kd of 0.671 nM, a koff of 0.00218 s⁻¹, an on-rate (kon) of 3.24e+06 M⁻¹ s⁻¹ and a t1/2 of 5 min. Moreover, in the assay with MERS RBD-hFc [4], the “ELISA Binding” value was found to be 2.68.

B2: H2aM15278N (antibody, V domains shown)
VH: QVQLVQSGAEVKKPGASVKVSCKASGYTFTSHGISWVRQAPGQGFEWMGWIGTYNSNTDYAQNFQGRVTMTTDTSTSTAYMELRNLRSDDTAVYYCARERGPYYGMDVWGQGTTVTVSS
VL: EIVLAQSPGTLSLSPGERATLSCRASQSVNSNYLAWYQQKPGQAPRLLIYGASSRATGIPDRFSGSGSGTDFTLTISRLEPEDFAVYYCQQYGNSLTFGPGTKVDFK
In the assay with MERS RBD-hFc [1], B2 registered a Kd of 2.05 nM and a t½ of 13.5 min. In the assay with MERS RBD-hFc [2], this molecule displayed a Kd of 0.506 nM, a koff of 0.000873 s⁻¹, a kon of 1.72e+06 M⁻¹ s⁻¹ and a t1/2 of 13 min. In the assay with MERS RBD-hFc [3], this molecule showed a dissociation constant Kd of 0.519 nM, a koff of 0.00113 s⁻¹, a kon of 2.17e+06 M⁻¹ s⁻¹ and a t1/2 of 10 min. In the assay with MERS RBD-hFc [4], the “ELISA Binding” value is 2.42.

B3: H1H15208P (antibody, V domains shown)
VH: EVQLVESGGDLVQPGGSLRLSCTASGFTFSNYEMNWVRQAPEKGLDWVSFISSSGGAIYYADSVKGRFTISRDNAKNSLYLQMNSLRAEDSAIYFCARSDSGGNSRYWGQGTLVTVSS
VL: DIQMTQSPSSVSASVGDRVTVTCRASQDISNWLVWYQQKPGKAPKFLIYAASSLQSGVPSRFSGSGSGTDFTLTISSLQPEDFATYYCQQANSFPPTFGGGTKVEIK
In the assay with MERS RBD-hFc [2], B3 gave a dissociation constant Kd of 0.553 nM, an off-rate (koff) of 0.000243 s⁻¹, a kon of 439000 M⁻¹ s⁻¹ and a t1/2 of 48 min. In the assay with MERS RBD-hFc [3], this molecule had a Kd of 1.01 nM, a koff of 0.000531 s⁻¹, a kon of 525000 M⁻¹ s⁻¹ and a t1/2 of 22 min.

B4: H1H15228P2 (antibody, V domains shown)
VH: EVQLVESGGGLVQPGGSLRLSCAVFGFTFSGYAMSWVRQAPGKGLEWVSAISGGGGSTYYTDSVKGRFTISRDNSKNTLYLQMNSLRAEDTAVYYCASYWNNGMDVWGQGTTVTVSS
VL: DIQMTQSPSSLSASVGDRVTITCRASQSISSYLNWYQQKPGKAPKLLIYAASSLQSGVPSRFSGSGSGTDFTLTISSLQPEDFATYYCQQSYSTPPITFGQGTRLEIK
In the assay with MERS RBD-hFc [2], B4 registered a dissociation constant (Kd) of 0.418 nM, a koff of 0.000185 s⁻¹, a kon of 443000 M⁻¹ s⁻¹ and a t1/2 of 63 min. In the assay with MERS RBD-hFc [3], this molecule gave a Kd of 0.975 nM, a koff of 0.000464 s⁻¹, a kon of 476000 M⁻¹ s⁻¹ and a t1/2 of 25 min.

B5: H1H15215P (antibody, V domains shown)
VH: EVQLVESGGGLVQPGGSLRLSCAASGFTFSTYGMSWVRQAPGKGLEWVSTIIGSGYNTYYSDSVKGRFTMSRDNSKSTLYLQMNSLRAEDTAVYYCTKEGPIIGTTNWGQGTLVTVSS
VL: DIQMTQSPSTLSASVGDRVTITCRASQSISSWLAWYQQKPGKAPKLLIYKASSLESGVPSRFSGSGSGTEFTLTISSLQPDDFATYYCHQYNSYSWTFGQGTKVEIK
In the assay with MERS RBD-hFc [2], B5 came in with a Kd of 0.671 nM, a koff of 9.67e-05 s⁻¹, a kon of 144000 M⁻¹ s⁻¹ and a t1/2 of 119 min. In the assay with MERS RBD-hFc [3], this molecule returned a Kd of 1.68 nM, a koff of 0.000233 s⁻¹, a kon of 138000 M⁻¹ s⁻¹ and a t1/2 of 50 min.

B6: H2aM15281N (antibody, V domains shown)
VH: QVQLVQSGAEVKKPGSSVKVSCKASKDTFSSYAISWVRQAPGQGLEWMGGIIPFFGTTTYEQKFQGRVTITTDESTRTAYMELSSLRSEDSAVYYCARDRPCISSAGTRYHYCVMDVWGQGTTVTVSS
VL: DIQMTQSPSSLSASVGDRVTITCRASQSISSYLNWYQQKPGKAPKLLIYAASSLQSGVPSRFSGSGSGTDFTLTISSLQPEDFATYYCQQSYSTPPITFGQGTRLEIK
In the assay with MERS RBD-hFc [1], B6 yielded a dissociation constant Kd of 2.77 nM and a t½ of 10.4 min. In the assay with MERS RBD-hFc [2], this molecule displayed a Kd of 0.39 nM, a koff of 0.000818 s⁻¹, a kon of 2.1e+06 M⁻¹ s⁻¹ and a t1/2 of 14 min. Also, in the assay with MERS RBD-hFc [3], binding was put at a Kd of 0.213 nM, the koff worked out at 0.000543 s⁻¹, the association rate constant (kon) stood at 2.55e+06 M⁻¹ s⁻¹ and the t1/2 was determined as 21 min. Besides, the “ELISA Binding” value in the assay with MERS RBD-hFc [4] was 2.54.

B7: H2aM15272N (antibody, V domains shown)
VH: QVRLVQSGAEVKKPGSSVKVSCKASGDTFSSYAISWVRQAPGQGLEWMGGIIPFFVTTTYAQNFQGRVTITTDESTRTAYMELSSLRSEDSAVYYCARDRPCISSAGTRYHYCVMDVWGQGTTVTVSS
VL: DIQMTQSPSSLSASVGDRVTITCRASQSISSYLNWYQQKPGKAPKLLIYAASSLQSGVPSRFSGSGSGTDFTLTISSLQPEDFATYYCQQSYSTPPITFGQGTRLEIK
B7: in the assay with MERS RBD-hFc [1], the Kd was found to be 2.72 nM and the t½ was determined as 9.5 min. Also, in the assay with MERS RBD-hFc [2], the Kd turned out to be 0.443 nM, the koff turned out to be 0.000733 s⁻¹, the association rate constant (kon) was 1.65e+06 M⁻¹ s⁻¹ and the t1/2 amounted to 16 min. Also, in the assay with MERS RBD-hFc [3], the Kd was determined as 0.316 nM, the koff was 0.000634 s⁻¹, the kon turned out to be 2e+06 M⁻¹ s⁻¹ and the t1/2 worked out at 18 min. Moreover, the “ELISA Binding” value in the assay with MERS RBD-hFc [4] turned out to be 2.52.

B8: H2aM15270N (antibody, V domains shown)
VH: EVQLLESGGGLEQPGGSLRLSCAASGFTFSSYAMIWVRQAPGKGLEWVSTISGSGVNTYYADSVKGRFTISRDNSKNTLHLQMNSLRAEDTAVYHCAKEGLDCANGVCYNYYGMDVWGQGTTVTVSS
VL: DIQMTQSPSSLSASVGDRVTITCRASQSINSFLNWYHQKPGKAPKFLIYSASNLQSGVPSRFSGSGSGTDFTLTISSLQPEDFSTYYCQQSYSIPLTFGGGTKVEIK
In the assay with MERS RBD-hFc [1], B8 yielded a Kd of 1.79 nM and a t½ of 17.3 min. For the same molecule, in the assay with MERS RBD-hFc [2], the dissociation constant Kd worked out at 0.776 nM, the koff turned out to be 0.000605 s⁻¹, the association rate constant (kon) came to 779000 M⁻¹ s⁻¹ and the t1/2 was 19 min. Moreover, in the assay with MERS RBD-hFc [3], binding was characterised by a dissociation constant (Kd) of 0.651 nM, the koff stood at 0.00114 s⁻¹, the kon came out at 1.75e+06 M⁻¹ s⁻¹ and the t1/2 was 10 min. Moreover, the “ELISA Binding” value in the assay with MERS RBD-hFc [4] came out at 2.04.

B9: H1H15233P2 (antibody, V domains shown)
VH: EVQLVESGGGLVQPGGSLRLSCAASGFSFSSYGMNWVRQAPGKGLEWVSAISGRGGNTYSADSVKGRFTISRDNSKNTLFLQMNGLRAEDSAFYYCAKVGTYSSSSPFDYWGQGTLVTVSS
VL: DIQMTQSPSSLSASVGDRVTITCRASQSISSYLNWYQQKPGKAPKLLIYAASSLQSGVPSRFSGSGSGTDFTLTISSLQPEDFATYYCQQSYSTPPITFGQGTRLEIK
Turning to B9, in the assay with MERS RBD-hFc [2], the dissociation constant Kd was determined as 0.229 nM, the koff stood at 4.56e-05 s⁻¹, the kon worked out at 199000 M⁻¹ s⁻¹ and the t1/2 came to 253 min. For the same molecule, in the assay with MERS RBD-hFc [3], the affinity, expressed as Kd, was 0.127 nM; the koff worked out at 4.74e-05 s⁻¹; the kon is 374000 M⁻¹ s⁻¹; the t1/2 was 244 min.

B10: H1H15253P2 (antibody, V domains shown)
VH: EVQLVESGGGLVQPGGSLRLSCVVSGFTSRNYAMSWVRQAPGKGLEWVSAISGSGGSTYYADSVKGRFTISRDNPKNTLYLQMNSLRAEDTALYYCAEDPGTSFDYWGQGTLVTVSS
VL: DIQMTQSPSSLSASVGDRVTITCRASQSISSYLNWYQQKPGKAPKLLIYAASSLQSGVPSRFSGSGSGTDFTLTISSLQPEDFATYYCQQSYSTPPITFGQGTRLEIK
As for B10, in the assay with MERS RBD-hFc [2], the Kd is 0.348 nM, the koff stood at 0.000124 s⁻¹, the kon stood at 356000 M⁻¹ s⁻¹ and the t1/2 was 93 min. In the assay with MERS RBD-hFc [3], this molecule showed a Kd of 1.44 nM, an off-rate constant (koff) of 0.000629 s⁻¹, a kon of 436000 M⁻¹ s⁻¹ and a t1/2 of 18 min.

B11: H1H15177P (antibody, V domains shown)
VH: EVQLVESGGGLVQPGGSLRLSCSASGFTFSSYDMSWVRQAPGKGLEWVSAIRGSGHTTYYADSVKGRFTISRDNSKNTLYLEMNSLRAEDTAVYYCVKDGSIVGFDPWGQGTLVTVSS
VL: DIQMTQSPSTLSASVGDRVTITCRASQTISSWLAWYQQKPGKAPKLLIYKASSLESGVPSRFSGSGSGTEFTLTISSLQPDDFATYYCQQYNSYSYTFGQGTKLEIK
In the assay with MERS RBD-hFc [2], B11 displayed a dissociation constant Kd of 0.39 nM, a koff of 0.000192 s⁻¹, a kon of 493000 M⁻¹ s⁻¹ and a t1/2 of 60 min. Moreover, in the assay with MERS RBD-hFc [3], the Kd stood at 1.23 nM, the off-rate (koff) is 0.000701 s⁻¹, the kon turned out to be 568000 M⁻¹ s⁻¹ and the t1/2 is 16 min.

These data come from patent US20190351049A1 (Regeneron, published 2019).
